Reference: patent US20250025561A1, “LIQUID COMPOSITIONS COMPRISING A PHOSPHORYLCHOLINE-TUFTSIN CONJUGATE” (Tarsier Pharma Ltd., priority 2021, published 2025)
*1 amine or outer side, *2 acyl side, *3 side chain or, on linkers, in order; H or OH if unused. Where a SMILES comes first, the peptide text is derived from it. [ ]: non-standard residue; d: D form. X1 = C[N+](C)(C)CCOP(=O)([O-])Oc1ccc(/N=N/c2cc(C[C@H](N[*:1])C(=O)[*:2])ccc2O)cc1; X2 = C[N+](C)(C)CCOP(=O)(O)Oc1ccc(/N=N\c2cc(CC(N[*:1])C(=O)[*:2])ccc2O)cc1; NMeT = CN[CH](C(=O)O)[CH](C)O

Assays:
[1] = test system: yeasts (S. cerevisiae); experiment: Yeast fermentation activity (gas formation) in aqueous suspension with sucrose; format: cell-based; conditions: FIG. 2
Description: Yeast fermentation activity was correlated to the formation of bubbles within the aqueous suspension.
In brief, varying amount of 1% w/w solution of TRS was added to an aqueous suspension containing yeasts (S. cerevisiae) and a sufficient amount of sucrose, to obtain aqueous compositions containing 4 ppm, 20 ppm, 40 ppm, and 80 ppm of TRS. The gas formation (fermentation activity) of the aqueous suspension with TRS (hereinafter, “the sample”) was quantified by evaluating the volume of the released gas and compared to a similar aqueous yeast suspension devoid of TRS (hereinafter, “the control”).
Further, the phosphorylcholine tuftsin conjugate (PC) of Formula 2A synthesized as disclosed herein, has been tested to evaluate its antifungal activity. The inventors performed a similar experiment, as disclosed above, using varying concentrations of the phosphorylcholine tuftsin conjugate of Formula 2 (i.e. 6.7 ppm, 20 ppm, 40 ppm, and 80 ppm).

[2] = Chemical stability of the synthesized conjugates; format: physicochemical
Description: In brief, 50 mg of TRS was dissolved in 2.5 mL of water and 50 equivalents of acetaldehyde were added (at room temperature). Then, the pH was adjusted to 6.8. The solution was shaken over the weekend and analyzed by an analytical HPLC. […] The reaction mixture was purified by a preparative HPLC, to isolate the phosphorylcholine tuftsin conjugate of Formula 3A.
The phosphorylcholine tuftsin conjugate of Formula 3A was dissolved in 0.1% formic acid in water and the pH was adjusted to 2.7. After 30 min, the solution was lyophilized. The crude reaction mixture was purified by preparative HPLC to obtain the phosphorylcholine tuftsin conjugate of Formula 2A.

[3] = Solubility of drug substance in water; format: physicochemical
Description: Drug Substance [TRS]: is a trifluoroacetate [TFA] salt of phosphorylcholine-tuftsin conjugate represented by Formula 1 (as shown herein). Molecular formula: C43H68N13O13P, Appearance: Yellow to orange solid. Solubility: >40 mg/ml in water.

[4] = Biological activity (test not specified)

For CC(O)C1NC(C)N(C(CCCCN)C(=O)N2CCCC2C(=O)NC(CCCNC(=N)N)C(=O)NCC(=O)NC(Cc2ccc(O)c(N=Nc3ccc(OP(=O)(O)OCC[N+](C)(C)C)cc3)c2)C(=O)O)C1=O (stereo not shown) [Formula 2], the “yeast activity vs control” value ([1]; 80 ppm) was “almost completely eliminated” and the “yeast activity vs control” value ([1]; lowest concentration of about 7 ppm (6.7 ppm)) was “significant reduction of the yeast activity”.
For CNC(C(=O)NC(CCCCN)C(=O)N1CCCC1C(=O)NC(CCCNC(=N)N)C(=O)NCC(=O)NC(Cc1ccc(O)c(/N=N\c2ccc(OP(=O)(O)OCC[N+](C)(C)C)cc2)c1)C(=O)O)C(C)O (stereo not shown) [Formula 5] (H-[NMeT]KPRG[X2]-OH; configuration not given here), the “chemical stability as compared to PC of Formula 2” value [2] was “reduced chemical stability”.
For C[C@@H](O)[C@H](N)C(=O)N[C@@H](CCCCN)C(=O)N1CCC[C@H]1C(=O)N[C@@H](CCCNC(=N)N)C(=O)NCC(=O)N[C@@H](Cc1ccc(O)c(/N=N/c2ccc(OP(=O)([O-])OCC[N+](C)(C)C)cc2)c1)C(=O)O [TRS] (H-TKPRG[X1]-OH), the solubility [3] was > 40 mg/mL.
In the case of C/C=N/CCCC[C@@H](C(=O)N1CCCC1C(=O)N[C@@H](CCCNC(=N)N)CNCC(=O)N[C@@H](Cc1ccc(O)c(/N=N/c2ccc(OP(=O)(O)OCC[N+](C)(C)C)cc2)c1)C(=O)O)N1C(=O)C([C@@H](C)O)NC1C (stereo partly shown) [Formula 3A], the “hydrolysis (converted into PC of Formula 2A)” value ([2]; at acidic pH) was “undergoes hydrolysis”.
With CC1NC([C@@H](C)O)C(=O)N1[C@@H](CCCCN)C(=O)N1CCCC1C(=O)N[C@@H](CCCNC(=N)N)CNCC(=O)N[C@@H](Cc1ccc(O)c(/N=N\c2ccc(OP(=O)(O)OCC[N+](C)(C)C)cc2)c1)C(=O)O (stereo partly shown) [Formula 2A] the biological activity [4] was “solid biological activity” and the chemical stability [2] was “sufficient chemical stability”.
